The values that follow are results of earlier work, collected in PMC7736282.

The target of the data set is Lys175 (UniProt position 175, VASSLKWRCPF). The experiment in a line: NMR.

Broadly, the pKa is the pH at which an ionisable group is half protonated. In the case of “VP39, cap-specific mRNA (nucleoside-2'-O-)-methyltransferase / poly(A) polymerase small subunit (Vaccinia virus)”, the pKa is listed as 8.5.
